Sequences and labels used below:
B1: Vang-like protein 1 (Homo sapiens), Q8TAA9 (parent)
chain: MDTESTYSGYSYYSSHSKKSHRQGERTRERHKSPRNKDGRGSEKSVTIQPPTGEPLLGNDSTRTEEVQDDNWGETTTAITGTSEHSISQEDIARISKDMEDSVGLDCKRYLGLTVASFLGLLVFLTPIAFILLPPILWRDELEPCGTICEGLFISMAFKLLILLIGTWALFFRKRRADMPRVFVFRALLLVLIFLFVVSYWLFYGVRILDSRDRNYQGIVQYAVSLVDALLFIHYLAIVLLELRQLQPMFTLQVVRSTDGESRFYSLGHLSIQRAALVVLENYYKDFTIYNPNLLTASKFRAAKHMAGLKVYNVDGPSNNATGQSRAMIAAAARRRDSSHNELYYEEAEHERRVKKRKARLVVAVEEAFIHIQRLQAEEQQKAPGEVMDPREAAQAIFPSMARALQKYLRITRQQNYHSMESILQHLAFCITNGMTPKAFLERYLSAGPTLQYDKDRWLSTQWRLVSDEAVTNGLRDGIVFVLKCLDFSLVVNVKKIPFIILSEEFIDPKSHKFVLRLQSETSV
partner: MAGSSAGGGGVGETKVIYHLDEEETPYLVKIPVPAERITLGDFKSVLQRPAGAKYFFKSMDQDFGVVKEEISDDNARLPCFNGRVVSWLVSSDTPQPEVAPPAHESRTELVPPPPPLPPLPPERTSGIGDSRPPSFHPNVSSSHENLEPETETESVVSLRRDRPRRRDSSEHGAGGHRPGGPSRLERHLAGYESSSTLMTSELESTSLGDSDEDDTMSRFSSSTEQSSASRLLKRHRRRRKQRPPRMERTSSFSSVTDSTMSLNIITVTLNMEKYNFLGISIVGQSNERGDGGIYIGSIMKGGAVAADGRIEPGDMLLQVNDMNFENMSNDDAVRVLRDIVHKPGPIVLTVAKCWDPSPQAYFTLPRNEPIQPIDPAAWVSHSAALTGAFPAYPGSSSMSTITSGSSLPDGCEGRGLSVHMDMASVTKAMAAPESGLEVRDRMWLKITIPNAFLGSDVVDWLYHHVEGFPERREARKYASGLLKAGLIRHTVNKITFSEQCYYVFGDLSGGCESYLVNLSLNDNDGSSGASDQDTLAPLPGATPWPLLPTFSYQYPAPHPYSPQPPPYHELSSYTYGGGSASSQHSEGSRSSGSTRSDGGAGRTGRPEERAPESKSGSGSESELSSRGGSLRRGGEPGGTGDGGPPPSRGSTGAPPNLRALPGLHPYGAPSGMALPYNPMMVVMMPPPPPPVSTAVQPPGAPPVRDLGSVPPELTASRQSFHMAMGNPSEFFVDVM
B2: Vang-like protein 1 (Homo sapiens), Q8TAA9 (parent)
chain: B1 chain
partner: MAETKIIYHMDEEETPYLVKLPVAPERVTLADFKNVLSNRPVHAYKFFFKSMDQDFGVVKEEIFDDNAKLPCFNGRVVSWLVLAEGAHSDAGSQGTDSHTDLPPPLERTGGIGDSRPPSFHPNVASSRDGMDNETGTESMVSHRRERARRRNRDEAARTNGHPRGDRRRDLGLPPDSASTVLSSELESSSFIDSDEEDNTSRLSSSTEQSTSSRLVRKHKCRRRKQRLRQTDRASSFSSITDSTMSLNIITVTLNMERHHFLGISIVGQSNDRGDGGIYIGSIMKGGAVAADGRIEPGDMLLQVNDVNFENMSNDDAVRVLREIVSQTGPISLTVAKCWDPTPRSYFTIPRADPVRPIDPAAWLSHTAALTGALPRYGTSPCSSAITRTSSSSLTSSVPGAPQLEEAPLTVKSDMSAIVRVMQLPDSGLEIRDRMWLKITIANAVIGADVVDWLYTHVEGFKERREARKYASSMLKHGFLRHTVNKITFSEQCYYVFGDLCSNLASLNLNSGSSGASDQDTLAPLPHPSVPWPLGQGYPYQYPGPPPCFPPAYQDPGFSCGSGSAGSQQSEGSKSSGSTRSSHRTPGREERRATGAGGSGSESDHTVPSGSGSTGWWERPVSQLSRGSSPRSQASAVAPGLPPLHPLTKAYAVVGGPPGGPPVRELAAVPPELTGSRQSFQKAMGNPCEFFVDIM

One assay covers variants of B1. The conditions noted are these: with dvl2_mouse Dvl2, Q60838.
On to MDTESTYSGYSYYSSHSKKSHRQGERTRERHKSPRNKDGRGSEKSVTIQPPTGEPLLGNDSTRTEEVQDDNWGETTTAITGTSEHSISQEDIARISKDMEDSVGLDCKRYLGLTVASFLGLLVFLTPIAFILLPPILWRDELEPCGTICEGLFISMAFKLLILLIGTWALFFRKRRADMPRVFVFRALLLVLIFLFVVSYWLFYGVRILDSRDRNYQGIVQYAVSLVDALLFIHYLAIVLLELRQLQPMFTLQVVRSTEGESRFYSLGHLSIQRAALVVLENYYKDFTIYNPNLLTASKFRAAKHMAGLKVYNVDGPSNNATGQSRAMIAAAARRRDSSHNELYYEEAEHERRVKKRKARLVVAVEEAFIHIQRLQAEEQQKAPGEVMDPREAAQAIFPSMARALQKYLRITRQQNYHSMESILQHLAFCITNGMTPKAFLERYLSAGPTLQYDKDRWLSTQWRLVSDEAVTNGLRDGIVFVLKCLDFSLVVNVKKIPFIILSEEFIDPKSHKFVLRLQSETSV [D259E], for which the “effect of a mutation on the interaction” value is “disrupting interaction strength”.

Another assay covers variants of B2. The conditions noted are these: with dvl1_mouse Dvl1, P51141.
Regarding MDTESTYSGYSYYSSHSKKSHRQGERTRERHKSPRNKDGRGSEKSVTIQPPTGEPLLGNDSTRTEEVQDDNWGETTTAITGTSEHSISQEDIARISKDMEDSVGLDCKRYLGLTVASFLGLLVFLTPIAFILLPPILWRDELEPCGTICEGLFISMAFKLLILLIGTWALFFRKRRADMPRVFVFRALLLVLIFLFVVSYWLFYGVRILDSRDRNYQGIVQYAVSLVDALLFIHYLAIILLELRQLQPMFTLQVVRSTDGESRFYSLGHLSIQRAALVVLENYYKDFTIYNPNLLTASKFRAAKHMAGLKVYNVDGPSNNATGQSRAMIAAAARRRDSSHNELYYEEAEHERRVKKRKARLVVAVEEAFIHIQRLQAEEQQKAPGEVMDPREAAQAIFPSMARALQKYLRITRQQNYHSMESILQHLAFCITNGMTPKAFLERYLSAGPTLQYDKDRWLSTQWRLVSDEAVTNGLRDGIVFVLKCLDFSLVVNVKKIPFIILSEEFIDPKSHKFVLRLQSETSV [V239I], the “effect of a mutation on the interaction” value was “disrupting interaction strength”.

In the case of MDTESTYSGYSYYSSHSKKSHRQGERTRERHKSPRNKDGRGSEKSVTIQPPTGEPLLGNDSTRTEEVQDDNWGETTTAITGTSEHSISQEDIARISKDMEDSVGLDCKRYLGLTVASFLGLLVFLTPIAFILLPPILWRDELEPCGTICEGLFISMAFKLLILLIGTWALFFRKRRADMPRVFVFRALLLVLIFLFVVSYWLFYGVRILDSRDRNYQGIVQYAVSLVDALLFIHYLAIVLLELRQLQPMFTLQVVRSTDGESRFYSLGHLSIQRAALVVLENYYKDFTIYNPNLLTASKFRAAKHMAGLKVYNVDGPSNNATGQSRAMIAAAARRRDSSHNELYYEEAEHERRVKKRKARLVVAVEEAFIHIQRLQAEEQQKAPGEVMDPREAAQAIFPSMARALQKYLRITRQQNYHSMESILQHLAFCITNGMTPKAFLERYLSAGPTLQYDKDRWLSTQWRLVNDEAVTNGLRDGIVFVLKCLDFSLVVNVKKIPFIILSEEFIDPKSHKFVLRLQSETSV [S467N], the “effect of a mutation on the interaction” value was “disrupting interaction strength”.

MDTESTYSGYSYYSSHSKKSHRQGERTRERHKSPRNKDGRGSEKSVTIQPPTGEPLLGNDSTRTEEVQDDNWGETTTAITGTSEHSISQEDIARISKDMEDSVGLDCKRYLGLTVASFLGLLVFLTPIAFILLPPILWRDELEPCGTICEGLFISMAFKLLILLIGTWALFFRKRRADMPRVFVFRALLLVLIFLFVVSYWLFYGVRILDSRDRNYQGIVQYAVSLVDALLFIHYLAIVLLELRQLQPMFTLQVVRSTDGESRFYSLGHLSIQQAALVVLENYYKDFTIYNPNLLTASKFRAAKHMAGLKVYNVDGPSNNATGQSRAMIAAAARRRDSSHNELYYEEAEHERRVKKRKARLVVAVEEAFIHIQRLQAEEQQKAPGEVMDPREAAQAIFPSMARALQKYLRITRQQNYHSMESILQHLAFCITNGMTPKAFLERYLSAGPTLQYDKDRWLSTQWRLVSDEAVTNGLRDGIVFVLKCLDFSLVVNVKKIPFIILSEEFIDPKSHKFVLRLQSETSV [R274Q]: the “effect of a mutation on the interaction” value is “with no effect”.

Turning to MDTESTYSGYSYYSSHSKKSHRQGERTRERHKSPRNKDGRGSEKSVTIQPPTGEPLLGNDSTRTEEVQDDNWGETTTAITGTSEHSISQEDIARISKDMEDSVGLDCKRYLGLTVASFLGLLVFLTPIAFILLPPILWRDELEPCGTICEGLFISMAFKLLILLIGTWALFFRKRRADMPRVFVFRALLLVLIFLFVVSYWLFYGVRILDSRDRNYQGIVQYAVSLVDALLFIHYLAIVLLELRQLQPMFTLQVVRSTEGESRFYSLGHLSIQRAALVVLENYYKDFTIYNPNLLTASKFRAAKHMAGLKVYNVDGPSNNATGQSRAMIAAAARRRDSSHNELYYEEAEHERRVKKRKARLVVAVEEAFIHIQRLQAEEQQKAPGEVMDPREAAQAIFPSMARALQKYLRITRQQNYHSMESILQHLAFCITNGMTPKAFLERYLSAGPTLQYDKDRWLSTQWRLVSDEAVTNGLRDGIVFVLKCLDFSLVVNVKKIPFIILSEEFIDPKSHKFVLRLQSETSV [D259E], the “effect of a mutation on the interaction” value is reported as “disrupting interaction strength”.

Turning to MDTESTYSGYSYYSSHSKKSHRQGERTRERHKSPRNKDGRGSEKSVTIQPPTGEPLLGNDSTRTEEVQDDNWGETTTAITGTSEHSISQEDIARISKDMEDSVGLDCKRYLGLTVASFLGLLVFLTPIAFILLPPILWRDELEPCGTICEGLFISMAFKLLILLIGTWALFFRKRRADMPRVFVFRALLLVLIFLFVVSYWLFYGVRILDSRDRNYQGIVQYAVSLVDALLFIHYLAIVLLELRQLQPMFTLQVVRSTDGESRFYSLGHLSIQRAALVVLENYYKDFTIYNPNLLTASKFRAAKHMAGLKVYNVDGPSNNATGQSRATIAAAARRRDSSHNELYYEEAEHERRVKKRKARLVVAVEEAFIHIQRLQAEEQQKAPGEVMDPREAAQAIFPSMARALQKYLRITRQQNYHSMESILQHLAFCITNGMTPKAFLERYLSAGPTLQYDKDRWLSTQWRLVSDEAVTNGLRDGIVFVLKCLDFSLVVNVKKIPFIILSEEFIDPKSHKFVLRLQSETSV [M328T], the “effect of a mutation on the interaction” value is “with no effect”.
